Results as given in article PMC4118869 (PLoS ONE, 2014).

How the values were obtained:
[1] = molecular target: T1, recombinant H7-HA, A/Netherlands/219/2003 (H7N7) (Influenza A virus …, UniProt Q6VMK1); test: SPR; data not shown: sdAbs on immobilised recombinant H3-HA and H7-HA; settings: both partners purified
T1 construct: source: bought: Protein Sciences

[2] = molecular target: T2, recombinant H3-HA, A/Brisbane/10/2007 (H3N2) (Influenza A virus A/Brisbane/10/2007 …, UniProt A8W8K8, strain); test: as above; settings: both partners purified
T2 construct: source: bought: Protein Sciences

[3] = molecular target: phage displayed HA gene fragment P66-I282 (Influenza A virus A/California/07/2009 …, UniProt C3W5X2); test: ELISA; settings: both partners purified
[4] = molecular target: hemagglutinin of A/California/07/2009 (H1N1)pdm09, in the influenza virus antigen standard (Influenza A virus A/California/07/2009 …, UniProt C3W5X2, strain); test: ELISA; settings: one partner purified
[5] = molecular target: phage displayed HA gene fragment L193-K225 (Influenza A virus A/California/07/2009 …, UniProt C3W5X2); test: ELISA; settings: both partners purified
[6] = molecular target: phage displayed HA gene fragment D363-G478 (Influenza A virus A/California/07/2009 …, UniProt C3W5X2); test: ELISA; settings: both partners purified
[7] = molecular target: recombinant H9-HA, A/HongKong/1073/99 (H9N2) (Influenza A virus A/Hong Kong/1073/99 …, UniProt Q9ICY5, strain); test: SPR; settings: both partners purified
[8] = molecular target: recombinant H5-HA, A/Vietnam/1203/2004 (H5N1) (Influenza A virus A/Vietnam/1203/2004 …, UniProt Q5EP31, strain); test: SPR; settings: both partners purified
[9] = molecular target: recombinant H1-HA (D18-I530), A/California/06/2009 (H1N1)pdm09 (Influenza A virus A/California/06/2009 …, UniProt C3W5S1, strain); test: SPR; settings: both partners purified
[10] = molecular target: T3, recombinant H2-HA, A/Japan/305/57 (H2N2) (Influenza A virus A/Japan/305/1957 …, UniProt P03451, strain); test: SPR; settings: both partners purified
T3 construct: source: bought: E-Enzymes (Protein Sciences in the SPR methods)

[11] = molecular target: hemagglutinin of A/Brisbane/10/2007 (H3N2), in the influenza virus antigen standard (Influenza A virus A/Brisbane/10/2007 …, UniProt A8W8K8, strain); test: ELISA; settings: one partner purified
[12] = molecular target: hemagglutinin of A/Anhui/01/2005 (H5N1), in the influenza virus antigen standard (Influenza A virus A/Anhui/1/2005 (H5N1), UniProt Q1WDM0, strain); test: ELISA; settings: one partner purified
[13] = molecular target: hemagglutinin of A/Indonesia/05/2005 (H5N1), in the influenza virus antigen standard (Influenza A virus A/Indonesia/05/2005 …, UniProt A5A5L7, strain); test: ELISA; settings: one partner purified
[14] = molecular target: hemagglutinin of A/HongKong/213/2003 (H5N1), in the influenza virus antigen standard (Influenza A virus A/Hong Kong/213/2003 …, UniProt Q4H2E2, strain); test: ELISA; settings: one partner purified
[15] = molecular target: recombinant H9-HA, A/HongKong/1073/99 (H9N2) (Influenza A virus A/Hong Kong/1073/99 …, UniProt Q9ICY5, strain); test: SPR; settings: both partners purified; remark: listed apart in the source
[16] = molecular target: T4, recombinant H7-HA, A/Netherlands/219/2003 (H7N7) (Influenza A virus …, UniProt Q6VMK1); test: SPR; settings: both partners purified
T4 construct: source: bought: Protein Sciences

[17] = molecular target: T5, recombinant H2-HA, A/Japan/305/57 (H2N2) (Influenza A virus A/Japan/305/1957 …, UniProt P03451, strain); test: SPR; settings: both partners purified
T5 construct: source: bought: E-Enzymes (list of antigens) or Protein Sciences (SPR methods)

[18] = molecular target: T6, recombinant H1-HA (H1N1)pdm09 hemagglutinin (Influenza A virus (H1N1)pdm09; …, UniProt C3W5S1, strain); test: SPR; settings: both partners purified
T6 construct: source: bought: Protein Sciences

[19] = molecular target: hemagglutinin of A/Singapore/01/57 (H2N2), in the influenza virus antigen standard (Influenza A virus A/Singapore/1/1957 …, UniProt Q67333, strain); test: ELISA; settings: one partner purified
[20] = molecular target: recombinant HA1 domain (D18-R344), A/California/06/2009 (H1N1)pdm09 (Influenza A virus A/California/06/2009 …, UniProt C3W5S1, strain); test: SPR; settings: both partners purified
[21] = molecular target: hemagglutinin of A/HongKong/1073/99 (H9N2), in the influenza virus antigen standard (Influenza A virus A/Hong Kong/1073/99 …, UniProt Q9ICY5, strain); test: ELISA; settings: one partner purified

Binder | binding result [1] | binding result [2] | binding result [3] | binding result [4] | binding result [5] | binding result [6] | binding result [7] | Kd [8] [nM] | Kd [9] [nM] | binding result [11] | binding result [12] | binding result [13] | binding result [14] | binding result [19] | koff [8] [s⁻¹] | kon [8] [M⁻¹ s⁻¹] | koff [9] [s⁻¹] | kon [9] [M⁻¹ s⁻¹] | other results
R1a-A5 (VHH, also called R1a-A5 monovalent; source: E. coli WK6 periplasm, purified (Talon IMAC, Superdex 75 SEC)) VHH: QVQLVESGGGLVQPGGSLRLSCSASGSAVLFSTYPMSWYRQAPGKQRELVAAVTTDGSTSYADYAKGRFTISRDNAKNTVYLQMNSLKPEDTAVYYCNARDGFFNRYDYWGQGTQVTVSS | no binding | no binding | no binding | binds | no binding | no binding | no binding | 0.18 | 1.87 | no binding | binds | binds | binds |  |  |  |  |  | binding result [10]: no binding
R1a-A5 monovalent (VHH, source: E. coli WK6, periplasmic extract, purified (Talon IMAC, Superdex 75 SEC)) VHH: QVQLVESGGGLVQPGGSLRLSCSASGSAVLFSTYPMSWYRQAPGKQRELVAAVTTDGSTSYADYAKGRFTISRDNAKNTVYLQMNSLKPEDTAVYYCNARDGFFNRYDYWGQGTQVTVSS |  |  |  |  |  |  |  |  |  |  |  |  |  |  |  |  |  |  | binding result [15]: no binding; binding result [16]: no binding; binding result [17]: no binding; Kd [18]: 1.56 nM
R2b-D8 (VHH, source: E. coli WK6 periplasm, purified (Talon IMAC, Superdex 75 SEC)) VHH: QVQLVESGGGLVQPGGSLRLSCAASGFTFSWYDVGWYRRAPGKERELVADIASTRGTTNYADSVKGRFTISRDNAKNSVYLQMNSLKPEDTAVYYCNTRRDWRDYWGQGIQVTVSS | no binding | no binding |  | binds |  | binds | no binding |  |  | no binding | binds | binds | binds | binds |  |  |  |  | 
R2a-G8 (VHH, source: E. coli WK6 periplasm, purified (Talon IMAC, Superdex 75 SEC)) VHH: QLQLAESGGGLVQAGGSLRLSCAASGSTLNNNAIGWFRQAPGKEREGVSCMNSRDGTTNYADSVKGRFTISRDVAKNTVYLQMNSLKPEDTAVYFCAVKGFAPFLIGCPWGKAEYDYWGQGTQVTVSS | no binding | no binding | no binding | binds | no binding |  | no binding | 9.07 | 3.55 | no binding | binds | binds | binds |  | 0.00223 | 252000 | 0.000798 | 225000 | Kd [20]: 7.66 nM; Kd [10]: 18.5 nM; koff [10]: 0.0142 s⁻¹; kon [10]: 764000 M⁻¹ s⁻¹
R2b-E8 (VHH, source: E. coli WK6 periplasm, purified (Talon IMAC, Superdex 75 SEC)) VHH: QVQLVESGGGLVQPGGSLRLSCAASGSFFSRYRMGWYRQAPGEQRELVAGITYDDSTNYAGSVKGRFTISRDNAKNTVHLQMNSLKPEDTAVYYCNLNPPGNLYWGQGTQVTVSS | no binding | no binding | no binding | binds | no binding | no binding |  | 0.48 | 1.74 | no binding | binds | binds | binds |  | 0.000143 | 299000 | 0.000628 | 361000 | binding result [10]: no binding; binding result [21]: binds
R1a-B6 (VHH, also called R1a-B6 monovalent; source: E. coli WK6 periplasm, purified (Talon IMAC, Superdex 75 SEC)) VHH: QVQLVESGGGLVQPGGSLRLSCAASGSFFSRYRMGWYRQAPGEQRELVASIAYDGSTSYADPVKGRFTISRDNANTVHLQMYSLKPDDTAVYYCNLDPPGILYWGQGTQVTVSS | no binding | no binding | no binding | binds | no binding | no binding |  | 0.52 | 0.86 | no binding | binds | binds | binds | binds |  |  |  |  | Kd [7]: 6.89 nM
R1a-B6 monovalent (VHH, source: E. coli WK6, periplasmic extract, purified (Talon IMAC, Superdex 75 SEC)) VHH: QVQLVESGGGLVQPGGSLRLSCAASGSFFSRYRMGWYRQAPGEQRELVASIAYDGSTSYADPVKGRFTISRDNANTVHLQMYSLKPDDTAVYYCNLDPPGILYWGQGTQVTVSS |  |  |  |  |  |  |  |  |  |  |  |  |  |  |  |  |  |  | Kd [15]: 4.19 nM; binding result [16]: no binding; Kd [18]: 0.36 nM
R2b-D9 (VHH, source: E. coli WK6 periplasm, purified (Talon IMAC, Superdex 75 SEC)) VHH: QVQLVESGGGLVQPGGSLRLSCLASGSAFSLYTMGWYRQAPGNQRELVAAITSGESTNYADSVKGRFTISRDNAKNTVYLQMNSLKPEDTAVYYCNADPLSTGWGQYSYWGQGTQVTVSS | no binding | no binding | no binding | binds | no binding | no binding |  | 0.15 | 0.18 | no binding | binds | binds | binds | binds | 2.08e-05 | 141000 | 2.96e-05 | 167000 | Kd [7]: 128 nM; koff [7]: 0.0528 s⁻¹; kon [7]: 413000 M⁻¹ s⁻¹; Kd [10]: 2.17 nM; koff [10]: 0.000163 s⁻¹; kon [10]: 75400 M⁻¹ s⁻¹
